In doi:10.1101/2023.09.21.558797 (2023) one finds percent of parent data, which are given here for four variants.

B1: GST-Dyn1xA-PRR (full-length proline-rich region of Dynamin 1 splice variant xA, 746-864) [rat] / Amphiphysin 1 (endogenous, rat brain synaptosomes) [rat (endogenous in rat brain synaptosomes)] (parent complex)
chain 1: NTTTVSTPMPPPVDDSWLQVQSVPAGRRSPTSSPTPQRRAPAVPPARPGSRGPAPGPPPAGSALGGAPPVPSRPGASPDPFGPPPQVPSRPNRAPPGVPSRSGQASPSRPESPRPPFDL
chain 2: MADIKTGIFAKNVQKRLNRAQEKVLQKLGKADETKDEQFEEYVQNFKRQEAEGTRLQRELRGYLAAIKGMQEASMKLTESLHEVYEPDWYGREDVKMVGEKCDVLWEDFHQKLVDGSLLTLDTYLGQFPDIKNRIAKRSRKLVDYDSARHHLEALQSSKRKDESRISKAEEEFQKAQKVFEEFNVDLQEELPSLWSRRVGFYVNTFKNVSSLEAKFHKEIAVLCHKLYEVMTKLGDQHADKAFSIQGAPSDSGPLRIAKTPSPPEEASPLPSPTASPNHTLAPASPAPVRPRSPSQTRKGPPVPPLPKVTPTKELQQENIINFFEDNFVPEINVTTPSQNEVLEVKKEETLLDLDFDPFKPDVTPAGSAAATHSPMSQTLPWDLWTTSTDLVQPASGGSFNDFTQPQDTSLFTMQTDQNMAETEQALPTEPQAEEPPTTAAAPTAGLDLGLEMEEPKEEAAIPPGTDAGETVGTEGSTGEEAEAEKAALPAGEGESPEGAKIDVESTELASSESPQAAELEAGAPQEKVIPSVVIEPASNHEGEEHQETTTGTETREATEDVAPQGPAGEKQELATEPTPLDSQAATPAPAGAVDASLSAGDAAQELPPGFLYKVETLHDFEAANSDELTLQRGDVVLVVPSDSEADQDAGWLVGVKESDWLQYRDLATYKGLFPENFTRHLE
B2: GST-Dyn1xA-PRR (full-length proline-rich region of Dynamin 1 splice variant xA, 746-864) [rat] / Endophilin A1 (endogenous, rat brain synaptosomes) [rat (endogenous in rat brain synaptosomes)] (parent complex)
chain 1: B1 chain 1
chain 2: MSVAGLKKQFHKATQKVSEKVGGAEGTKLDDDFKEMERKVDVTSRAVMEIMTKTIEYLQPNPASRAKLSMINTMSKIRGQEKGPGYPQAEALLAEAMLKFGRELGDDCNFGPALGEVGEAMRELSEVKDSLDMEVKQNFIDPLQNLHDKDLREIQHHLKKLEGRRLDFDYKKKRQGKIPDEELRQALEKFDESKEIAESSMFNLLEMDIEQVSQLSALVQAQLEYHKQAVQILQQVTVRLEERIRQASSQPRREYQPKPRMSLEFATGDGTQPNGGLSHTGTPKPAGVQMDQPCCRALYDFEPENEGELGFKEGDIITLTNQIDENWYEGMLHGQSGFFPINYVEILVALPH

One assay covers variants of B1. Briefly: GST pull-down, densitometry of western blots; n=2; parent: 100; read off a plot. Background: Immunoblotting shows a protein as a band on a membrane.
Regarding chain 1 S106E, chain 1 S112E, the percent of parent is roughly 90%.

Consider chain 1 S29E, chain 1 S33E, for which the percent of parent is roughly 98%.

In a further assay the parent is B2. The description is as above.
In the case of chain 1 S29E, chain 1 S33E, the percent of parent was roughly 37%.

As to chain 1 S106E, chain 1 S112E, the percent of parent was roughly 53%.
